B1: TPR t1 (parent)
chain: GACCAAUCUGCCCUCAGAGCUCGAGAACAUCUUCGGAUGCAGAGGAGGCAGGCUUCGGUGGCGCGAUAGCGCCAACGUCCUCAACCUCCAAUGCAUCCCACCACAUGAUGAUGCCUGAAGAGCCUUGGUUUUUUG

This series covers variants of B1. The experiment in a line: polymerase ribozyme fitness, log enrichment relative to wild type (log ratio); higher = more active; in vitro selection for triplet polymerase activity. An outline of the steps: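 A single round of triplicate in vitro selection, including frozen incubation at −7 °C, was applied to PCR-built, transcribed mutant libraries of each subunit of a heterodimeric triplet polymerase ribozyme. Illumina sequencing of input and output libraries retained genotypes with ≥10 input reads and ≥1 read per output. Fitness is the base-2 logarithm of genotype enrichment divided by wild-type enrichment, from inverse-variance-weighted replicate averages.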
In the case of U54C G61A, the “polymerase ribozyme fitness (log ratio)” value was -0.24.
Under A6U G63U U78C C97U G120C stands -3.08; under C8G C15A G69A C89G, -5.71.
For A26G G48A G63U C101G, the “polymerase ribozyme fitness (log ratio)” value is -4.73.
Under G65A stands -3.57; under A75C, -0.585.
Consider A75G, for which the “polymerase ribozyme fitness (log ratio)” value was 0.101.
With A41U C56A U87C the figure was -1.49.
With A95U U109A U130G the figure was -6.07; with G45U A90C A105G U106A U130G U131A, -2.74; with G10A A16C A50G A95C, -3.07.
With U14G A50U G61C C86A the figure was -4.54.
Turning to A75U C85A U92C G113C, the “polymerase ribozyme fitness (log ratio)” value is -3.69.
With G17A C40G G60A A83C A84C A121C, the “polymerase ribozyme fitness (log ratio)” value is -3.61.
In the case of U9A U32A A37U A46C C56A A111G, the “polymerase ribozyme fitness (log ratio)” value was -4.29.
With C94G C115A the figure was -0.789; with C13U G51C C85A C124G, -3.2; with C12G U14A A26U C72U A90G C123A, -2.58.
Under A2G U78A stands 0.0128; under C12A G63U C70G C89A A90U A100U A121G, -1.48; under U7A C15G C88U C124U, 0.702.
Regarding G10A U130C, the “polymerase ribozyme fitness (log ratio)” value was found to be 0.4.
For the variant C40G U59A C86U A100U, the “polymerase ribozyme fitness (log ratio)” value was -4.58.
With G19A A43U C101A U129G the figure was -4.15; with G63A A121C G135A, 0.83.
Under G61U U131C stands 0.233; under A5U U9G C62A, -0.961; under C72G C86A G93C C104G A108U U109G A118G, -6.21.
On to G19C G71U C114A G128A, for which the “polymerase ribozyme fitness (log ratio)” value is -2.59.
Consider A91G U129A, for which the “polymerase ribozyme fitness (log ratio)” value was -2.34.
On to C31U C73A A95C, for which the “polymerase ribozyme fitness (log ratio)” value was -5.67.
With A74G C123G the figure was 1.31.
With A6C C12G G52A G63U U106A the figure was -2.76.
Under A111C stands 0.388.
A29G U38G C73G C82U A100G C115G: the “polymerase ribozyme fitness (log ratio)” value was -7.25.
With C22U U54G the figure was -3.24.
With U21A C86G the figure was -0.987; with G71A C82G G117U, -3.41; with C22U A41U C73U C82G A83U C124U, -4.15.
In the case of C3U G10A U21C G61A C98U A119U, the “polymerase ribozyme fitness (log ratio)” value was -2.55.
With C56U G57U G69U C114U C115A the figure was -4.53; with A18G U87G U109A, -2.3; with C28U C56A, -1.65.
On to C11U G39U C102A C104U A111G, for which the “polymerase ribozyme fitness (log ratio)” value is -1.71.
Under G69U A105C stands -0.532.
With U30C G71U U87C the figure was -4.19; with G23C G120C, -5.28.
With A5C G17A the figure was -4.76; with G45U G48U A68C A74C A95G C97A C98U C104U G122U, -6.66.
In the case of G39U G63A A100U G120U, the “polymerase ribozyme fitness (log ratio)” value was -2.94.
On to U78G C86U U133A, for which the “polymerase ribozyme fitness (log ratio)” value was -0.63.
With C11G G19U C82U the figure was -5.29.
With C13U A18U A118G the figure was -1.84.
Regarding U14G C73G C82A, the “polymerase ribozyme fitness (log ratio)” value is -3.08.
Consider C12G C98U U133G, for which the “polymerase ribozyme fitness (log ratio)” value was -1.82.
For the variant G48C C56G G110U, the “polymerase ribozyme fitness (log ratio)” value is -1.56.
With C20U G63U, the “polymerase ribozyme fitness (log ratio)” value was -2.43.
Under C56G G122A stands -1.46.
Under A50G C56G A103C C115G stands -5.53.
Turning to C11G C20U A26C A27G G44U C114U, the “polymerase ribozyme fitness (log ratio)” value is -6.01.
With G42U A43G G45U U55G C72A the figure was -0.969; with A84G G93U C101A, -3.07.
Under C11U C53A C97U stands -1.37; under C8U G47C G77C U129G, -3.36.
With C28U C40U G51C C76A the figure was -6.21.
Turning to U9A G44C C70G, the “polymerase ribozyme fitness (log ratio)” value was -4.48.
In the case of C56U G61U U112C A118C, the “polymerase ribozyme fitness (log ratio)” value is -4.53.
With C88A C99A U125G the figure was -6.88; with A100C U112G, -0.251.
With A5U G63U G110A the figure was -2.89; with C8G C11U U21C C34U, -3.99; with C15A G45A C89G G93C, -4.59.
With C53U G113U the figure was -1.43; with G60C G127A, -1.59; with C8G U32A A43U G47U G52C C86A U96A, -6.26.
U59A C85U G113A: the “polymerase ribozyme fitness (log ratio)” value was -2.11.
Under C64A C115U stands -5.54; under G45U C104U A119G U130A, -1.09; under G45A C80U C115A A121G, 0.603.
Under C8U C56A U81G G120C stands 0.594; under A41C G69U U112C, 0.865; under C13U C70G A83C U112C, -1.45.
With G69C U81G C82U C104U U112G the figure was -2.5; with A5C A37G C88A, -3.94; with A6U G93C, -0.28.
Turning to U7A G39A G52A, the “polymerase ribozyme fitness (log ratio)” value is 0.0728.
With U55C U96A U106A the figure was -0.506; with U14A A24G A119G, -4.72.
Under C11A U133A stands -2.64; under A68G A90U, -4.47; under G60U G135U, -0.871.
Turning to G19U G61C, the “polymerase ribozyme fitness (log ratio)” value is -4.85.
Under G25U C56U C72G C123G stands -6.31; under U7A C34A G61U C97U, -2.06.
Under G45A G61U stands -0.292; under C12A C64U U133G, -0.934.
Under C13U U30C A46U C73U stands -5.98; under G44U C72U, -1.36.
Consider A5U A18U, for which the “polymerase ribozyme fitness (log ratio)” value was -2.62.
C8A A74G: the “polymerase ribozyme fitness (log ratio)” value amounted to 0.152.
In the case of C98G C124U, the “polymerase ribozyme fitness (log ratio)” value was -5.51.
Under C40U A91C C97U C115U stands -3.9; under U9C G23U C31U A41G G52A C82G A83C A121C, -6.19.
Consider C11G C12A C40U C99U G117A C124G, for which the “polymerase ribozyme fitness (log ratio)” value was -6.76.
Under A50C U116A U131A stands -3.32; under G39U C123G U126C, -0.255.
With C12A G117U the figure was -1.72.
Under A18G C80U U92C G120U U129C U130A stands -6.4.
Take C73U C115A: the “polymerase ribozyme fitness (log ratio)” value was -0.495.
Under G71U G117A U130C stands -1.71; under G63C G122A, -0.479.
Under U54C C97G C123U stands -2.86.
With U38A C73U the figure was -2.86; with C98U C104U U112A, -2.26; with C11U C56U G128C, -3.11.
In the case of A5C A24G A27G, the “polymerase ribozyme fitness (log ratio)” value is -4.69.
Consider C72A U78A C124A U132C U133A, for which the “polymerase ribozyme fitness (log ratio)” value was found to be 1.3.
Under A6C U78A C79A stands -3.63; under U55G A95U A111C A121U G127C, 0.185.
Under G61A G127U stands -1.35.
Regarding C20G C82A, the “polymerase ribozyme fitness (log ratio)” value is -4.78.
With C13A A27U A43U G57C the figure was -4.33; with G45C G69C, -2.23.
With G71U C82G the figure was -1.17.
With G35A G44U C115A C124G the figure was -2.88; with A24G C40A G117A C124G, -4.17; with U7A C8U G107C C124U, -4.43.
Take A26G U78C: the “polymerase ribozyme fitness (log ratio)” value is -2.25.
With A18C C72U the figure was -2.49.
With C101A G110A the figure was -2.55.
With C70A C88A the figure was -1.82.
For C4A G69U, the “polymerase ribozyme fitness (log ratio)” value was -0.0821.
Under G35U A90C C97G A121C stands -7.34.
Under A41U C53U C72A C86A C114U U129G stands -5.65; under C22U C72A, -3.91.
Under C8A C12G C64A C123A stands -6.53; under G36A G42U, -2.99; under C13G G51C G69U U78G, -2.43.
As for C49U G63A U67C C85U G93U G110C C124A, the “polymerase ribozyme fitness (log ratio)” value is -8.14.
With G60A C115U the figure was -1.41; with U96G G120A, -0.241; with C13U A37U G42U G63U C85U U112A, -3.9.
For the variant A6U A50G C123A G128C, the “polymerase ribozyme fitness (log ratio)” value was -0.104.
C64U G120A: the “polymerase ribozyme fitness (log ratio)” value came to 0.482.
As for U106C U109A A121U, the “polymerase ribozyme fitness (log ratio)” value is -4.69.
Under G77A C79U stands 0.354; under G113A C114A U125A U133A, -3.52.
With C8A C40G A84U the figure was -0.858; with A2C C28U G71A U78A A90G, -5.83; with G60C A111U U116C, -5.57.
Regarding C4A G23A A50G G61C U87C A95G G117U C123G, the “polymerase ribozyme fitness (log ratio)” value was -6.54.
Turning to G10C C12G C72A A105U, the “polymerase ribozyme fitness (log ratio)” value is -3.93.
With A46U G52A U109C C124G the figure was -7.25; with C11G C86G, -1.7.
With G69A C98U the figure was -3.52; with G39A C56U G107U A111U U129A, -5.29.
Turning to G39C A50C C56G G71A G77A A90U U96A, the “polymerase ribozyme fitness (log ratio)” value was -4.32.
With A6G U14G G58A C70U the figure was -1.12; with A5C C89U, -0.689; with C11U C12G C15U C70U, -1.83.
With U21G C22U U92G C104A U109A the figure was -5.96; with C53U C80U, -0.665.
In the case of G45U C124G U133A, the “polymerase ribozyme fitness (log ratio)” value worked out at 0.519.
With C13U A41G C49A G52U the figure was -1.15; with A27G G57C G122A U132C, -3.07; with U14G U87G G127C, -4.35.
Under G61A A74C C79A U131G stands -1.98.

Values taken from the RNAGym collection of RNA variant scans (doi:10.1073/pnas.2313332121).
